Results on 40 sequences are retold here after the nanobody polyreactivity screen of Harvey et al. (2022).

This series in a line: yeast display, Sf9 membrane polyspecificity reagent, FACS + sequencing; frameworks hold sequencing errors. The essentials:
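A nanobody's polyreactivity label depends on the gate it was sorted from. Yeast display cells were stained with 10% biotinylated, detergent-solubilized Sf9 membrane reagent for 1 hour at 4 °C, enriched on streptavidin microbeads and sorted by FACS. The low and high (top ~1%) gates were set on anti-HA fluorescence for expression and streptavidin fluorescence for reagent binding.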
Consider “QVQVVESGGGLVQAGGSLRLSCAASGSIFTYYAMGWYRQAPGKERELVAAINWSGASTYYADSVKGRFTISRDNAKNTVYLQMNSLKPEDTAVYYCAGYGYWGQGTQVTVSS”, for which the “polyreactivity (PSR sort gate)” value is on record as “high polyreactivity”.

In the case of “QVQLVESGGGLVQAGGSLRLSCAASGRIFVHYAMGWYRQAPGKEREWVAAITSGSSTNYADSVKGRFTISRDNAKNTVYLQMNSLKPEDTAVYYCAVDDWLDWLCADFGYWGQGTQVTVSS”, the “polyreactivity (PSR sort gate)” value is reported as “low polyreactivity”.

Regarding “QVQLVESGGGLVQAGGSLRLSCAASGSTFTGYAMGWYRQAPGKERELVAAISISGGRTFYADSVKGRFTISRDNAKNTVYLQKNSLKPEDTAVSYCAASLRGSKYSFDYWGQGTQVTVSS”, the “polyreactivity (PSR sort gate)” value is recorded as “high polyreactivity”.

Turning to “QVQLVESGGGLVQAGGSLRLSCAASGRTFDSYVMGWYRQAPGKERELVAAISSRGGTYYADSVKGRFTISRDNAKNTVYLQMNSLKPEDTAVYYCAARIYRKYYRYDYWGQGTQVTVSS”, the “polyreactivity (PSR sort gate)” value is reported as “high polyreactivity”.

As to “QVHLVESGGGLGKAGGSLRLTCAASGSTFKYYAMAWYRQAPGKETELVAAISQRGGSTYYADSVKGRFTISRYNAKNTVYLQMNCLKPEDTAVYYCNAGFQRAYSGPGYDMDYWGQGTQVTVSS”, the “polyreactivity (PSR sort gate)” value is given as “high polyreactivity”.

For “QVQLVESGGGLVQAGGSLRLSCAASGRTFGPYAMGWYRQAPGKEREMVAAIRFSGGSTYYADSVKGRFTISRDNAKNTVYLQMNSLKPEDTAVYYCNARLGSSKGRVEKYGSWGQGTQVTVSS”, the “polyreactivity (PSR sort gate)” value was “high polyreactivity”.

With “QVQLVESGGGLVQAGGSLRLSCAASGYIFGQNHMGWYRQAPGKERELVAAISSDGSTYYADSVKGRFTISRDNAKNTVYLQMNSLKQEDTAVYYCKYYHQRFPYRQVYYWGQGTQVTVSS”, the “polyreactivity (PSR sort gate)” value is reported as “low polyreactivity”.

Take “QVQLVESGGGLVQAGGSLRLSCAASGITFYYYAKGWYRQAPGKEREFVAAINWSGTSTYYADSVKGRFTISRDNAKNTVYLQMNSLKPEDTAVYYCNAERGRSFWWAYDYWGQGTQVTVSS”: the “polyreactivity (PSR sort gate)” value was “low polyreactivity”.

With “QVQLVESGGGLVQEGGSLRLICAASGSIFWLYAMGWYRQAPGKERELVAAIDSGDSTKYADSVKGRFTISRDNAKYTVYLQMNSLKPEDTAVYYCNASRRYHVRAPYDYWGQGTQVTVSS”, the “polyreactivity (PSR sort gate)” value was “low polyreactivity”.

For the sequence “QVQLVESWGGLVQAGGSLRLSCAASGSTFVAYAMGGYRQAPGKEREFVAGISVRGGSTYYADSVKGRFTISRDNAKNTVYLQMNSLKPEDTAVYYCAARRVDTRVHVRYRYYYWGQGTQVTVSS”, the “polyreactivity (PSR sort gate)” value is reported as “high polyreactivity”.

For the sequence “QVQLVESGGGLVQAGGSLRLSCAAYGSIIGVNAMGWYRPAPGKERELVAAISSTGGSTYYADSVKGRFTISRDNAKNTVYLQMNSLKPEDTAVYYCNTDYSKSIGDGYAGFDYWGQGTQVTVSS”, the “polyreactivity (PSR sort gate)” value is listed as “low polyreactivity”.

Take “QVQLVESGGGLVQAGGSLRLSSAASGRIFYRNAMGWYRQAPGKEREMVAAINWSGGSTYYADSVKGRFTISRDNAKNSVYLQMNSLKPEDTAVYYCAAKPGKTPLTGDRGPYDTGYGYWGQGTQVTVSS”: the “polyreactivity (PSR sort gate)” value was “low polyreactivity”.

Regarding “QVQLVESGGGLVQAGGSLRLSCAASGSIFYRNAMGWYRQAPGKERELVASISASGGRTYYADSVKGRLTISRDNAKNTVYFQMYSLNREETAFYYCNKVSPVAYWYSWGINFDFWGQGTQVTVSS”, the “polyreactivity (PSR sort gate)” value is reported as “high polyreactivity”.

Take “QVQLVESGGGLVQAGGSLRLSCAASGITLYRYAMGWYRLAPGKERELVADISSGGGTTYYADSVKGRFTISRDNAKNTVYLQMNSLKPEDTAVYYCAADYGFRYPLYEFWGQGTQVTVSS”: the “polyreactivity (PSR sort gate)” value is on record as “low polyreactivity”.

For “QVQLVESGGGLVQAGGSLRLSCAASGLTFFPNAMGWYRQAPGKERELVAAISNNGGRTYYADSVKGRFTISRDNAKNTVYLQMNSLKPEDTAVYYCAKYLSPGERHSYDYWGQGTQVTVSS”, the “polyreactivity (PSR sort gate)” value is reported as “high polyreactivity”.

“QVQLVESGGGLVQAGGSLRLSCDASGSTFNANAMGWYRQAPWKERVLVAAISWNGGRTYYADSVKGRFTISRDNAKNTVYLQMNSLKPEDTAVYYCALVYTAGRNYYYWGQGTQVTVSS”: the “polyreactivity (PSR sort gate)” value was “high polyreactivity”.

For the sequence “QVQLVESAGGLVQAGGSLRLSCAASGYTFVNYAMGWYRQAPGKERELVAAISRSGGSTYYADSVKGRFTISRDHAKNTVYLQMNSLKPEDTAVYYCAKVVQGDHPYDYWGQGTQVTVSS”, the “polyreactivity (PSR sort gate)” value was “high polyreactivity”.

As for “QVQLVESGGGLDQAGGSLRLSCASSGRIFRYNARGWYRQAPGKERELVAAITSGTGTNYADSVKGRFTISRDNAKNTVYLQMNRLTPEETAVYYCAVDYGYWRDSMGLGVFDYWGQGTQVTVSS”, the “polyreactivity (PSR sort gate)” value is “low polyreactivity”.

On to “QVQLVESGGGLVQAGGSLRLTCAASGGTFRLYAMGWYRQAPGKERELVAAISSTGSTYYAASVKGRFTISRDNAKNTVYLQMNSLKPEDTAVYYCNAKLPVTSLKFDYYYWGQGTQVTVSS”, for which the “polyreactivity (PSR sort gate)” value is “high polyreactivity”.

For “QVQLLESGGGLVQAGGILRLSCAASGIIFRYYTMGWYRPAPGKERELVAAITSGGSTNYADSVKGRFTISRDNAKHTVYLQMNRLKPEDTAVYYCRQLSVWGYDYWGQGTQVTVSS”, the “polyreactivity (PSR sort gate)” value is recorded as “high polyreactivity”.

Consider “QVQIVESGGGLVQAGGSLRLSCAASGSIFGYYVMGWNRQAPGKERELVAAISSGGGNTYYADSVKGRFTISRDNAKNTVYLQMISLKPEDTAVYYCAALRSWRKTGGAQRYWYDYWGHGTQVTVSS”, for which the “polyreactivity (PSR sort gate)” value is “high polyreactivity”.

“QVQLVESGGGLVQAGGSLRLSCASSGFTFGYYTKGWYRQAPGKERELVAAITSGGGTYYADSVKGRFTISRDNAKNTVYLQMKSLKPEDTAVYYCATTPGLYKVSSRYGYWGQGTQVTVSS”: the “polyreactivity (PSR sort gate)” value was “high polyreactivity”.

Turning to “QVHRVESGGGLVQAGGSLRLSCAASGSIFSYYDLGWYRQAPGNERELVAAISWDGGDRTYADSVKGRFTISRDNAKNNVYLQMNSLKPEDSAVYYCAKNTGSYRRVNLDYWGQGTQVTVSS”, the “polyreactivity (PSR sort gate)” value was “low polyreactivity”.

Turning to “QVQLVESGGGLVQAGGSLRLSCAASGFTFHVNTMGWYRQAPGKERELVAAISRSGGSTYYADSVKGRFTISRDNAKNTVYLQMNSLKPEDTAVYYCATPSPGYTYDPRTQEENDYWGQGTQVTVSS”, the “polyreactivity (PSR sort gate)” value is “low polyreactivity”.

With “QVQLVESGGGLVQAGGSLRLSCAASGRTFRRNAMGWYRQAPGKERELVASITGTGSTTYYADSVKGRFTISRDNAKNTVYLQMNSLKPEDTAVYYCAASSKYQDYWGQGTQVTVSS”, the “polyreactivity (PSR sort gate)” value is on record as “high polyreactivity”.

Turning to “QVQLVESGGGLVQAGGSLRLSCAASGRIFAYYTMGWYRQAPGKERELVAAITNGGRTSYADSVKGRFTISRDNAKNTVYLQMNSLKPEDTAVYYCNAQQYRWPRVYYNYNYWGQGTQVTVSS”, the “polyreactivity (PSR sort gate)” value is “high polyreactivity”.

For “QVQLVESGGGLVQAGGSLRLSSAASGSTFYQYAMGWYRQAPGKERELVAAISWDSGSTYYADSVKGRFTISRDNAKNTVYLQMNSLKPEDTAVYYCAASWYGYYDGYAVEYDYWGQGTQVTVSS”, the “polyreactivity (PSR sort gate)” value is “low polyreactivity”.

Take “QVQLVESGGGLVQAGGSLRISCAASGNICSWYAMGWSRQAPGKERELVAAIRWSSGSTYYADSVKWRFTISRDNAKNTVYLQMNSMKPEDTAVYYCAAVIKGWGQGTQVTVSS”: the “polyreactivity (PSR sort gate)” value is on record as “high polyreactivity”.

On to “QVQLVESGGGLVQAGGSLRLSCAASGRTFNYYVMGWFRQAPGKERELVATINWSGGSTYYADSVKGRFTISRDNAKNTVYLQMNSLKPEDTAVYYCAARWFYHRNHNRNYWGQGTQVTVSS”, for which the “polyreactivity (PSR sort gate)” value is on record as “high polyreactivity”.

With “QVQLVESGGGLVQAGGSLRLSCAASGFIISDYAMGWYRQAPGKERELVAVITWRSGSTYYADSVKGRFTISRDNAKNTVYFQMHSLKPVDTAVYYCAARYYRNYSQGRRLGYNYWGQGTQVTVSS”, the “polyreactivity (PSR sort gate)” value was “high polyreactivity”.

For “QVQLEESGGGLVQAGGSLRLSCAASGSIFVYYRMGWYRQAPGKERELVAAISSGGSTHYADSVKGRFTISRDNAKNTVYLQMNSLKPEDTAFYYRNDRAYGNGMGTGYFGKHRYDYWGQGTQVTVSS”, the “polyreactivity (PSR sort gate)” value is given as “low polyreactivity”.

Regarding “QVQLVESGGGLVQAGGSHRLSCAASGFIFRRNAMGWYRQAPGKERELVAAITKSGGSTYYADSVKGRFTISRDNAKNTVYLQMNSLKPEDTAVYYCAAKRQTGQSYYWGQGTQVTVSS”, the “polyreactivity (PSR sort gate)” value is reported as “high polyreactivity”.

In the case of “QVQLVESGGVLVQAGGSLRLSCAASGFTFWLYAMGWYRQAPGKERELVAAISSGGGSTYYADSVKGRFTNSRDNAKNTVYLQMNSLKPEDTAVYYCNRYYYYGYDWGQGTQVTVSS”, the “polyreactivity (PSR sort gate)” value is on record as “high polyreactivity”.

On to “QVQLVESGGGLVQAGGSLRLSCAASGSTFAPYAMGWYRQAPGKERELVASIRSTGSTNYADSVKGRFTISRDNAKNTVYLQMNSLKPEDTAVYYCAARYRRYQYRVKVDYYYWGQGTQVTVSA”, for which the “polyreactivity (PSR sort gate)” value was “high polyreactivity”.

Turning to “QVQLVESGGGLVQAGGSLRLSCAASGSIFVTYAMGWYRQAPGKERELVAAISTSGGSTYADSVKGRFTISRDNAKNTVYLQMNSLKPEDTAVYYCNADDPGYAVPWYWFKSDYWGQGTQVTVSS”, the “polyreactivity (PSR sort gate)” value was “low polyreactivity”.

Consider “QVQLVESGGCLVQAGGSLRLSCAASGITFGRNTMGWSRQAPGKERELVAAIDSGGNTYADSVKGRFTISRDNAKNTVYLQMNSLKPEDTAVYYCAVDGGEFSSYGYWVQGTQVTVSS”, for which the “polyreactivity (PSR sort gate)” value is given as “low polyreactivity”.

For the sequence “QVQLVESGGGLVQAGGSLRLSCAPSGSIFRGYTMGWYRQAPVKERELVAAISWSGGSTYYADSVKGRFTISRDNAKNTVYLQMNSLKPEDTAVYYCAAGDYYHRIFLWYDFWGQGTQVNVSS”, the “polyreactivity (PSR sort gate)” value is “low polyreactivity”.

Turning to “QVQLVESGGGLVQAGGSLRLSCAASGRIFYAYAMGWYRQAPGKETELVAAITWRGGRTFYADSVKGRFTISRDNAKNTVYFQMNSLKPEDTAVYYCATRGAPYGMDYWGQGTQVTVSS”, the “polyreactivity (PSR sort gate)” value is “high polyreactivity”.

“QVQLQESGGGLVQAGGSLRLSCAASGFIFARNYMGWNRQAPGKERELVAGIGVGASTNYADSVKGRFTISRDNAKNTVYLQINSLEPEDTAVYYCAVGDTVLGYHYYWGQGTQVTVSI”: the “polyreactivity (PSR sort gate)” value is recorded as “low polyreactivity”.

On to “QVHIVETGGGLFQAGGSLRLSSASSGRIFPVYAMGWYRQAPGKERELVAAISRRGGSSYYEDSVKGRFTISRDNAKNTVYLHMNCLKTEDTEVNYFAATAYYYWWWYGGDMDYWGQGTQVSVSS”, for which the “polyreactivity (PSR sort gate)” value is recorded as “high polyreactivity”.
